These results are taken from publication PMC9974451.

The target in the test is His-importin 7 (Xenopus laevis) (Xenopus laevis). The test can be described thus: differential scanning fluorimetry; His-tagged NTR at 0.5 μM in TPB with 2 mM DTT, His-NOSIP or Ubc9 titrated in 18 steps from 0.05 to 5 μM, 5x SYPRO Orange, 25 to 90 °C; Tm plotted against concentration, exponential fit. Background: Differential scanning fluorimetry follows unfolding on heating by fluorescence.

B1: His-NOSIP (natural protein)
chain: MTRHGKNCTAGAVYTYHEKKKDTAASGYGTQNIRLSRDAVKDFDCCCLSLQPCHDPVVTPDGYLYEREAILEYILHQKKEIARQMKAYEKQRGTRREEQKELQRAASQDHVRGFLEKESAIVSRPLNPFTAKALSGTSPDDVQPGPSVGPPSKDKDKVLPSFWIPSLTPEAKATKLEKPSRTVTCPMSGKPLRMSDLTPVHFTPLDSSVDRVGLITRSERYVCAVTRDSLSNATPCAVLRPSGAVVTLECVEKLIRKDMVDPVTGDKLTDRDIIVLQRGGTGFAGSGVKLQAEKSRPVMQA
For orientation: Kd means the constant that tells how readily two partners part at equilibrium. In turn, B1 returned a Kd of 447 nM.
